# Measurements: patent US20240287172A1 (SCIRHOM, published 2024)
# Residue numbers refer to the chain shown, from its start.
# T1: hiR2-FL-H620R-T7 (human, UniProt Q6PJF5 1-856)
# T1 sequence: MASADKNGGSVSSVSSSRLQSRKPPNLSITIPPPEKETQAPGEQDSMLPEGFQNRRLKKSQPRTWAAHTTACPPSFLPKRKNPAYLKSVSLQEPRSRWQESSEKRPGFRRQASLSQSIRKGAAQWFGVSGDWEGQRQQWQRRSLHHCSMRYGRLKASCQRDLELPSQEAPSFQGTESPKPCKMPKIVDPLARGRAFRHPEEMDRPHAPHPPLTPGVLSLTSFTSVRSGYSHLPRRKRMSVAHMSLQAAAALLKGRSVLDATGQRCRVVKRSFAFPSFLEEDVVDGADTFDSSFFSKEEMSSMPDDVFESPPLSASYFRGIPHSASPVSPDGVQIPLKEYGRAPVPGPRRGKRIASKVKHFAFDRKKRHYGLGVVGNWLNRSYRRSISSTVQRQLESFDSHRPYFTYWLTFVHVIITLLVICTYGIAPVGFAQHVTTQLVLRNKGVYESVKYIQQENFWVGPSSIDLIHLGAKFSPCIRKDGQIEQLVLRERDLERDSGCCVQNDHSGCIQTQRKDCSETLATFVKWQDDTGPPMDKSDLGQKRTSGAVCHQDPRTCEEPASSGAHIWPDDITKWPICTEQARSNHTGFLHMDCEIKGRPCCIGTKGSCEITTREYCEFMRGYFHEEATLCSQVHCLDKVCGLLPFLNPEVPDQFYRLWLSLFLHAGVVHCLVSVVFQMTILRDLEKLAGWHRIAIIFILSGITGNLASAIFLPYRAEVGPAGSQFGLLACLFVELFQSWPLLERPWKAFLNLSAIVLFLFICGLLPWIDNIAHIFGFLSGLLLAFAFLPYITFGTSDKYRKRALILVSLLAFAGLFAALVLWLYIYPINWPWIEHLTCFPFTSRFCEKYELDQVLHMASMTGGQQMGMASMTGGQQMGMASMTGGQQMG
# B1: antibody 43 (antibody, V domains shown)
# VH: QVALKESGPGILQPSQTLSLTCSFSGFSLSTFGMGVGWIRQSSGKGLEWLANIWWDDDKYYNPALKSRLTISKDASKNQAFLKIANVDTADTATYYCARIGNYGSNYWYFDVWGTGTTVTVSS
# VL: QIVLTQSPAIMSASPGERVTMTCSANSRISYMYWYQQKPGSSPRLLIYDTSNLASGVPVRFSGSGSGTSYSLTISRMEAEDAATYNCQQWSSYPLTFGAGTKLELK
# notes: mouse IgG, kappa light chain; also called clone #43; purified antibody 43
# B2: antibody 48 (antibody, V domains shown)
# VH: QVQLQQSGTELVRPGTSVKVSCKASGYAFTNYLIEWVKQRPGQGLEWIGVINPGSGFTKYNEKFKGKATLTADKSSSTVYMHLSSLTSEDSAVYFCARGLYRAMDYWGQGTSVTVSS
# VL: DIQMTQSPASQSASLGESVTITCLASQTIATWLAWYQQKPGKSPQLLIYGATTLADGVPSRFSGGGSGTKFSFKISSLQAEDFVSYYCQQLYSTPYTFGGGTKLEIK
# notes: mouse IgG, kappa light chain; also called clone #48; purified antibody 48
# B3: antibody 50 (antibody, V domains shown)
# VH: B2 VH with T9A, T16A, T30S, V79A, H82Q
# VL: B2 VL with A30G, G50A, T52A, T53S, S85N, L91I
# notes: mouse IgG, kappa light chain; also called clone #50; purified antibody 50
# Target: T1, hiR2-FL-H620R-T7
# Assay: FACS, MEF-DKO cells, 3 µg/ml
# Excerpt: In brief, immortalized MEF-DKO hiR2-FL-G563D-T7, MEF-DKO hiR2-FL-A564P-T7, MEF-DKO hiR2-FL-1566E-T7, MEF-DKO hiR2-FL-D569E-T7, MEF-DKO hiR2-FL-E579K-T7, MEF-DKO hiR2-FL-Q580N-T7, MEF-DKO hiR2-FL-A581S-T7, MEF-DKO hiR2-FL-R582A-T7, MEF-DKO hiR2-FL-S583G-T7, MEF-DKO hiR2-FL-G587N-T7, MEF-DKO hiR2-FL-F588H-T7, MEF-DKO hiR2-FL-L589P-T7, MEF-DKO hiR2-FL-E594V-T7, MEF-DKO hiR2-FL-K596T-T7, MEF-DKO hiR2-FL-S607R-T7, MEF-DKO hiR2-FL-T612S-T7, MEF-DKO hiR2-FL-E617D-T7, MEF-DKO hiR2-FL-H620R-T7, MEF-DKO hiR2-FL-L636M-T7, MEF-DKO hiR2-FL-K638D-T7, MEF-DKO hiR2-FL-1771F-T7, MEF-DKO hiR2-FL-1825V-T7, MEF-DKO hiR2-FL-1828V-T7, MEF-DKO hiR2-FL-N829R-T7, MEF-DKO hiR2-FL-W830C-T7, MEF-DKO hiR2-FL-P831E-T7, MEF-DKO hiR2-FL-I833C-T7, MEF-DKO hiR2-FL-H835F-T7, MEF-DKO hiR2-FL-F8391-T7, MEF-DKO hiR2-FL-S843D-T7, MEF-DKO hiR2-FL-Q853A-T7, MEF-DKO hiR2-FL-V854Q-T7 and MEF-DKO hiR2-FL-R844K-T7 cells were harvested with 10 mM EDTA in PBS, washed and resuspended in FACS buffer (PBS, 3% FBS, 0.05% sodium azide), and seeded in Nunc U-bottom 96-well plates (Thermo Fisher Scientific, USA) at approximately 1×10⁵ cells per well. To pellet cells and remove supernatants, the plates were centrifuged at 1,500 rpm and 4° C. for 3 minutes. For primary staining, cells were resuspended in 100 μl per well of either FACS buffer alone (controls) or the purified antibodies 3, 5, 16, 22, 34, 42, 43, 44, 48, and 50 of the invention at 3 μg/ml in FACS buffer and incubated on ice for 1 hour. Afterwards, plates were centrifuged at 1,500 rpm and 4° C. for 3 minutes and washed twice with 200 μl per well of FACS buffer. For secondary staining, cells were spun down and resuspended in 100 μl per well of PE-conjugated goat anti-mouse IgG F(ab′)2 detection fragment (Dianova, Germany) diluted 1:100 in FACS buffer. Protected from light, the cell suspensions were incubated on ice for 1 hour. Plates were then centrifuged at 1,500 rpm and 4° C. for 3 minutes and washed three times with 200 μl per well of FACS buffer. Finally, cells were resuspended in 150 μl per well of FACS buffer and analyzed using a BD Accuri™ C6 Plus flow cytometer (Becton Dickinson, Germany).
row,Binder,loss of binding vs wild type [%]
1,B1,≥ 30
2,B2,≥ 30
3,B3,≥ 30
